Results as given in patent publication US20180016354A1 (Merck KGaA, published 2018).
Substitutions are numbered along the chain they refer to.

B1: Effector Negative (EN) isotype domain-exchanged bispecific antibody BsAb2 (anti-CD16× anti-EGFR CH3-KiH), BsAb2 EN (bispecific antibody, human IgG1, kappa)
heavy 1: QVQLVQSGAEVKKPGASVKVSCKASGYTFTSHWMHWVRQAPGQGLEWIGEFNPSNGRTNYNEKFKSKATMTVDTSTNTAYMELSSLRSEDTAVYYCASRDYDYDGRYFDYWGQGTLVTVSSASTKGEPQVYTLPPSRDELTKNQVSLYCLVKGFYPSDIAVEWESNGQPENNYKTTPPVLDSDGSFFLYSKLTVDKSRWQQGNVFSCSVMHEALHNHYTQKSLSLSKSCDKTHTCPPCPAPPVAGPSVFLFPPKPKDTLMISRTPEVTCVVVDVSHEDPEVQFNWYVDGVEVHNAKTKPREEQAQSTFRVVSVLTVVHQDWLNGKEYKCKVSNKGLPAPIEKTISKTKGQPFRPEVHLLPPSREEMTKNQVSLTCLARGFYPKDIAVEWESNGQPENNYKTTPSRQEPSQGTTTFAVTSKLTVDKSRWQQGNVFSCSVMHEALHNHYTQKTISLSPGK
heavy 2: not shown
light 1: DIQMTQSPSSLSASVGDRVTITCSASSSVTYMYWYQQKPGKAPKLLIYDTSNLASGVPSRFSGSGSGTDYTFTISSLQPEDIATYYCQQWSSHIFTFGQGTKVEIKRTVAEPQVYTLPPSRDELTKNQVSLTCLVKGFYPSDIAVEWESNGQPENNYKTTPPVLDSDGSFFLTSKLTVDKSRWQQGNVFSCSVMHEALHNHYTQKSLSLSGEC
light 2: not shown
notes: also called EN BsAb2; effector negative IgG2 variant of BsAb2
B2: One-armed anti-CD16 with the unengineered 3G8 Fab fused to the SEED AG heavy chain (antibody)
heavy: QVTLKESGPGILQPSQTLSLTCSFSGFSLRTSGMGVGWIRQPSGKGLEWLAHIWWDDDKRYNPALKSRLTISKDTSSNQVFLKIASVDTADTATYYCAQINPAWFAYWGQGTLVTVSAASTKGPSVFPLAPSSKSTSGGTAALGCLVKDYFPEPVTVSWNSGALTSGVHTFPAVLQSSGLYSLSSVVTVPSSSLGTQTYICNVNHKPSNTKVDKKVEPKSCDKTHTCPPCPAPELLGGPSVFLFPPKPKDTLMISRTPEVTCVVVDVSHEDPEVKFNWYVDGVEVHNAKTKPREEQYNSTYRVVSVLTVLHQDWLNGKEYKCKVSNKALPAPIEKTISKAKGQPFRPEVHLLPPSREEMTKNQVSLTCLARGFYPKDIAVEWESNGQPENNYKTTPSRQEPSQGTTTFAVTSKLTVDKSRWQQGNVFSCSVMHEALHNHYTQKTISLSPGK
chain: EPKSSDKTHTCPPCPAPELLGGPSVFLFPPKPKDTLMISRTPEVTCVVVDVSHEDPEVKFNWYVDGVEVHNAKTKPREEQYNSTYRVVSVLTVLHQDWLNGKEYKCKVSNKALPAPIEKTISKAKGQPREPQVYTLPPPSEELALNELVTLTCLVKGFYPSDIAVEWLQGSQELPREKYLTWAPVLDSDGSFFLYSILRVAAEDWKKGDTFSCSVMHEALHNHYTQKSLDRSPGK
light: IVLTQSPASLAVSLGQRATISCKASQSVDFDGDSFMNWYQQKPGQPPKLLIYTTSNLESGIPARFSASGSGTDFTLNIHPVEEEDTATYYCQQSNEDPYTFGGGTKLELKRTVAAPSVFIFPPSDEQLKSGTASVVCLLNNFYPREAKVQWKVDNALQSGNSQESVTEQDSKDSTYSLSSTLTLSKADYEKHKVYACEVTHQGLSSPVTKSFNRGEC
notes: One Fab arm only; also called one-armed anti-CD16 antibody
B3: one-armed anti-EGFR SEED antibody with KiH2 CH3 domain-exchanged Fab, Variant 2 (antibody)
heavy: QVQLVQSGAEVKKPGASVKVSCKASGYTFTSHWMHWVRQAPGQGLEWIGEFNPSNGRTNYNEKFKSKATMTVDTSTNTAYMELSSLRSEDTAVYYCASRDYDYDGRYFDYWGQGTLVTVSSASTKGEPQVYTLPPSRDELTKNQVSLSCAVKGFYPSDIAVEWESNGQPENNYKTTPPVLDSDGSFFLVSKLTVDKSRWQQGNVFSCSVMHEALHNHYTQKSLSLSKSCDKTHTCPPCPAPELLGGPSVFLFPPKPKDTLMISRTPEVTCVVVDVSHEDPEVKFNWYVDGVEVHNAKTKPREEQYNSTYRVVSVLTVLHQDWLNGKEYKCKVSNKALPAPIEKTISKAKGQPFRPEVHLLPPSREEMTKNQVSLTCLARGFYPKDIAVEWESNGQPENNYKTTPSRQEPSQGTTTFAVTSKLTVDKSRWQQGNVFSCSVMHEALHNHYTQKTISLSPGK
light: B1 light 1 with T132W, T173Y
chain: B2 chain
notes: hu425 Fv; one Fab arm only; also called KiH2 variant 2
B4: one-armed anti-EGFR SEED antibody with SEED CH3 domain-exchanged Fab, Variant 1 (antibody)
heavy: QVQLVQSGAEVKKPGASVKVSCKASGYTFTSHWMHWVRQAPGQGLEWIGEFNPSNGRTNYNEKFKSKATMTVDTSTNTAYMELSSLRSEDTAVYYCASRDYDYDGRYFDYWGQGTLVTVSSASTKGPEVHLLPPSREEMTKNQVSLTCLARGFYPKDIAVEWESNGQPENNYKTTPSRQEPSQGTTTFAVTSKLTVDKSRWQQGNVFSCSVMHEALHNHYTQKTISLSKSCDKTHTCPPCPAPELLGGPSVFLFPPKPKDTLMISRTPEVTCVVVDVSHEDPEVKFNWYVDGVEVHNAKTKPREEQYNSTYRVVSVLTVLHQDWLNGKEYKCKVSNKALPAPIEKTISKAKGQPFRPEVHLLPPSREEMTKNQVSLTCLARGFYPKDIAVEWESNGQPENNYKTTPSRQEPSQGTTTFAVTSKLTVDKSRWQQGNVFSCSVMHEALHNHYTQKTISLSPGK
light: DIQMTQSPSSLSASVGDRVTITCSASSSVTYMYWYQQKPGKAPKLLIYDTSNLASGVPSRFSGSGSGTDYTFTISSLQPEDIATYYCQQWSSHIFTFGQGTKVEIKRTVAEPQVYTLPPPSEELALNELVTLTCLVKGFYPSDIAVEWLQGSQELPREKYLTWAPVLDSDGSFFLYSILRVAAEDWKKGDTFSCSVMHEALHNHYTQKSLDRSGEC
chain: B2 chain
notes: hu425 Fv; one Fab arm only; also called CH3-SEED variant 1
B5: one-armed anti-EGFR SEED antibody with SEED CH3 domain-exchanged Fab, Variant 2 (antibody)
heavy: QVQLVQSGAEVKKPGASVKVSCKASGYTFTSHWMHWVRQAPGQGLEWIGEFNPSNGRTNYNEKFKSKATMTVDTSTNTAYMELSSLRSEDTAVYYCASRDYDYDGRYFDYWGQGTLVTVSSASTKGEPQVYTLPPPSEELALNELVTLTCLVKGFYPSDIAVEWLQGSQELPREKYLTWAPVLDSDGSFFLYSILRVAAEDWKKGDTFSCSVMHEALHNHYTQKSLDRSKSCDKTHTCPPCPAPELLGGPSVFLFPPKPKDTLMISRTPEVTCVVVDVSHEDPEVKFNWYVDGVEVHNAKTKPREEQYNSTYRVVSVLTVLHQDWLNGKEYKCKVSNKALPAPIEKTISKAKGQPFRPEVHLLPPSREEMTKNQVSLTCLARGFYPKDIAVEWESNGQPENNYKTTPSRQEPSQGTTTFAVTSKLTVDKSRWQQGNVFSCSVMHEALHNHYTQKTISLSPGK
light: DIQMTQSPSSLSASVGDRVTITCSASSSVTYMYWYQQKPGKAPKLLIYDTSNLASGVPSRFSGSGSGTDYTFTISSLQPEDIATYYCQQWSSHIFTFGQGTKVEIKRTVAPEVHLLPPSREEMTKNQVSLTCLARGFYPKDIAVEWESNGQPENNYKTTPSRQEPSQGTTTFAVTSKLTVDKSRWQQGNVFSCSVMHEALHNHYTQKTISLSGEC
chain: B2 chain
notes: hu425 Fv; one Fab arm only; also called CH3-SEED variant 2
B6: Unengineered one-armed anti-EGFR antibody (CH1/CL hu425 Fab on SEED AG heavy chain, with huFc_GA SEED) (antibody)
heavy: QVQLVQSGAEVKKPGASVKVSCKASGYTFTSHWMHWVRQAPGQGLEWIGEFNPSNGRTNYNEKFKSKATMTVDTSTNTAYMELSSLRSEDTAVYYCASRDYDYDGRYFDYWGQGTLVTVSSASTKGPSVFPLAPSSKSTSGGTAALGCLVKDYFPEPVTVSWNSGALTSGVHTFPAVLQSSGLYSLSSVVTVPSSSLGTQTYICNVNHKPSNTKVDKKVEPKSCDKTHTCPPCPAPELLGGPSVFLFPPKPKDTLMISRTPEVTCVVVDVSHEDPEVKFNWYVDGVEVHNAKTKPREEQYNSTYRVVSVLTVLHQDWLNGKEYKCKVSNKALPAPIEKTISKAKGQPFRPEVHLLPPSREEMTKNQVSLTCLARGFYPKDIAVEWESNGQPENNYKTTPSRQEPSQGTTTFAVTSKLTVDKSRWQQGNVFSCSVMHEALHNHYTQKTISLSPGK
chain: B2 chain
light: DIQMTQSPSSLSASVGDRVTITCSASSSVTYMYWYQQKPGKAPKLLIYDTSNLASGVPSRFSGSGSGTDYTFTISSLQPEDIATYYCQQWSSHIFTFGQGTKVEIKRTVAAPSVFIFPPSDEQLKSGTASVVCLLNNFYPREAKVQWKVDNALQSGNSQESVTEQDSKDSTYSLSSTLTLSKADYEKHKVYACEVTHQGLSSPVTKSFNRGEC
notes: One Fab arm only (monovalent); also called unengineered Fab one-armed anti-EGFR; control antibody
B7: one-armed domain-exchanged KiH antibody with Charge pair CH3 domains in the Fab, Variant 1 (antibody)
heavy: not shown
light: B1 light 1 with D122E, L124M, K158D, T173Y, K175D
chain: not shown
notes: hu425 Fv; one Fab arm only; also called one-armed KiH antibody, Charge pair variant 1
B8: one-armed domain-exchanged KiH antibody with Azymetric CH3 domains in the Fab, Variant 1 (antibody)
heavy: not shown
light: B1 light 1 with T116V, D122E, L124M, T132L, K158L, T160W, T173Y
chain: not shown
notes: hu425 Fv; one Fab arm only; also called one-armed KiH antibody, CH3-Azymetric variant 1
B9: one-armed domain-exchanged KiH antibody with Azymetric CH3 domains in the Fab, Variant 2 (antibody)
heavy: not shown
light: B1 light 1 with T116V, L117Y, D122E, L124M, F171A, T173V
chain: not shown
notes: hu425 Fv; one Fab arm only; also called one-armed KiH antibody, CH3-Azymetric variant 2
B10: one-armed domain-exchanged KiH antibody with Charge pair CH3 domains in the Fab, Variant 2 (antibody)
heavy: not shown
light: B1 light 1 with D122K, L124M, D165K, T173Y
chain: not shown
notes: hu425 Fv; one Fab arm only; also called one-armed KiH antibody, Charge pair variant 2
B11: one-armed domain-exchanged KiH antibody with SEED CH3 domains in the Fab, Variant 1 (antibody)
heavy: not shown
light: B4 light
chain: not shown
notes: hu425 Fv; one Fab arm only; also called one-armed KiH antibody, CH3-SEED variant 1
B12: one-armed domain-exchanged KiH antibody with SEED CH3 domains in the Fab, Variant 2 (antibody)
heavy: not shown
light: B5 light
chain: not shown
notes: hu425 Fv; one Fab arm only; also called one-armed KiH antibody, CH3-SEED variant 2

Legend:
[1] = molecular target: T1, CD16a receptor (FcγIIIa) (UniProt P08637 17-254, limits assumed); assay: CD16a HTRF cellular binding assay, competition with labeled human IgG
T1 construct: whole, on cells
Procedure: FIG. 14: Binding of antibodies to CD16a receptor. Binding was measured using CD16a HTRF cellular binding assay (CisBio). Measurement was performed in duplicates.

[2] = molecular target: T1, CD16a receptor (FcγIIIa); assay: cell-based or functional assay
[3] = molecular target: T2, EGFR (on EGFR-expressing A431 cells) (UniProt P00533 25-1210, limits assumed); assay: cell-based or functional assay
[4] = molecular target: T2, EGFR (on EGFR-expressing A431 cells); assay: flow cytometry on A431 cells
[5] = molecular target: T2, EGFR (on EGFR-expressing A431 cells); assay: flow cytometry on EGFR-positive A431 cells

T1 sequence (P08637 17-254 limits assumed): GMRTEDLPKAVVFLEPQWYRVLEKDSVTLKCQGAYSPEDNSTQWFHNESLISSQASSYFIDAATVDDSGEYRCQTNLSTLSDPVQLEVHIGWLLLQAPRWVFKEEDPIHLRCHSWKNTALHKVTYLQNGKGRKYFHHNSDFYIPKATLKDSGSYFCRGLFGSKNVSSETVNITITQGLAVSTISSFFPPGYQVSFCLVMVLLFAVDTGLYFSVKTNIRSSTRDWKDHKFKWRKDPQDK

Row | Binder | binding result [4] | binding result [5] | other results
1 | B1 |  |  | IC50 [1]: ~3.6 nM; EC50 of lysis of A431 cells by redirected NK cells (LDH release) [2]: 0.037 nM; lysis of A431 cells by redirected NK cells (LDH release) [2]: ≤ 50%; EC50 of lysis of A431 cells by redirected NK cells (LDH release) [3]: 0.037 nM; lysis of A431 cells by redirected NK cells (LDH release) [3]: ≤ 50%
2 | B2 |  |  | IC50 [1]: ~0.1 nM
3 | B3 | binds |  | 
4 | B4 | binds |  | 
5 | B5 | binds |  | 
6 | B6 | binds |  | 
7 | B7 |  | binds | 
8 | B8 |  | binds | 
9 | B9 |  | binds | 
10 | B10 |  | binds | 
11 | B11 |  | binds | 
12 | B12 |  | binds | 
